# Measurements: patent US20250145697A1 (WASHINGTON UNIVERSITY, published 2025)
# What was measured:
# [1] = target: T1, recombinant alipidated human ApoE2 (human, UniProt P02649 19-317); test: ELISA, plate coated with 0.5 ug/ml recombinant apoE2, HRP goat anti-mouse detection, OD450
# T1 construct: mature; full length recombinant protein made in E. coli or bought
# Protocol: ELISA plates were coated with 0.5 μg/ml of recombinant apoE2 (square), apoE3 (open circle), or apoE4 (closed circle). Then different concentrations of (A) HJ151, (B) HJ153, (C) HJ154, or (D) HJ156 were loaded on the plates. Horse-radish peroxidase labeled goat anti-mouse secondary antibodies were used to detect binding. […] HJ151 is specific for ApoE4 and HJ156 binds only ApoE3 and ApoE4. FIG. 5E-H are graphs depicting surface plasmon resonance profiles for various antibodies. Anti-ApoE antibodies were serially diluted 3-fold (starting at 100 nM for HJ153 (E), and 1000 nM for HJ151 (F), and […] (G)) for detection of binding to biotinylated-recombinant apoE4 captured on a streptavidin chip. Samples were injected at a flow rate of 30 μl/minute. (H) Apparent KD values of HJ151, HJ153 and HJ156 were calculated based on the SPR experiment.
# ELISA plates were coated with 0.5 μg/ml of recombinant apoE2, apoE3, or apoE4. Then different concentrations of HJ151 (FIG. 5A), HJ153 (FIG. 5B), HJ154 (FIG. 5C), or HJ156 (FIG. 5D) were loaded on the plates. Horse-radish peroxidase labeled goat anti-mouse secondary antibodies were used to detect binding. […] HJ151 is specific for ApoE4 and HJ156 binds only ApoE3 and ApoE4. Surface plasmon resonance profiles for various antibodies was also performed.
# [2] = target: T1, recombinant alipidated human ApoE2; test: ELISA: untreated ApoE2 coated at 0.5 ug/ml, antibody titrated, HRP goat anti-mouse IgG, OD650
# Protocol: (§1) The aggregated ApoE was induced by incubating ApoE at 1 mg/ml concentration at 40° C. for 24 hours. The aggregates then were recovered in the pellet fraction following ultracentrifugation at 186,000 g for 1 hour. For ELISA, the untreated ApoE or heat-induced aggregates of ApoE were coated directly to ELISA plates at 0.5 μg/ml overnight at 4° C. After three washes with PBS, the wells were blocked with 1% BSA-PBS for 1 hour at room temperature with shaking at 500 rpm. The blocked wells were washed once with PBS and subsequently loaded with antibodies at serial concentrations (starting at 100 nM with 5-fold dilutions thereafter). Bound antibodies were detected with HRP-labeled goat anti-mouse IgG (Jackson Immunoresearch) and visualized with TMB substrate at OD₆₅₀ (reaction stopped with BioFX stop solution).
# Target sequence in this assay (P02649 19-317 R176C): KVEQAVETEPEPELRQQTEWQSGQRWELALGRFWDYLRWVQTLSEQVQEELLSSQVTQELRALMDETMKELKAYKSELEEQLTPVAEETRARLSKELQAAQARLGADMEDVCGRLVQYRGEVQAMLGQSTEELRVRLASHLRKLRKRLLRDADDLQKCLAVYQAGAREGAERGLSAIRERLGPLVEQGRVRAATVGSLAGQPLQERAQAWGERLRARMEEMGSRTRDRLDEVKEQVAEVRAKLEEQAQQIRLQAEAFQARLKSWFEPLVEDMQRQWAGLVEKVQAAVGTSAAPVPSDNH
# murine ApoE = target: T2, murine ApoE (mouse, UniProt P08226 19-311); test: Western blot of mouse brain lysates
# T2 sequence (looked up): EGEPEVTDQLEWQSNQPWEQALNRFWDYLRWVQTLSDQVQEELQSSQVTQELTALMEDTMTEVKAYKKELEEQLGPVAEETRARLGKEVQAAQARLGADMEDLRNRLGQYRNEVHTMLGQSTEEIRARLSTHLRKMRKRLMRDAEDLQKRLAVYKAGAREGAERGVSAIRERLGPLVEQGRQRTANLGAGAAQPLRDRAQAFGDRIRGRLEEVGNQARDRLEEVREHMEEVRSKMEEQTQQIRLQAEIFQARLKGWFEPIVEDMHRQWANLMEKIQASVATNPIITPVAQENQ
# Source text: Brain lysates from apoE KO mice or mice expressing human apoE3, human apoE4 or murine apoE were immunoblotted with HJ151, HJ152, HJ153, and HJ154. A commercial apoE antibody GA-50 was used as a positive control.
# [3] = target: T3, recombinant alipidated human ApoE3 (human, UniProt P02649 19-317); test: ELISA: untreated ApoE3 coated at 0.5 ug/ml, antibody titrated, HRP goat anti-mouse IgG, OD650
# T3 construct: mature; full length recombinant protein made in E. coli or bought
# T3 sequence (P02649 19-317): as the sequence (P02649 19-317 R176C) above, with C158R counted along it
# Protocol: as §1
# [4] = target: T4, heat-induced aggregates of ApoE4 (human, UniProt P02649 19-317); test: ELISA: ApoE4 incubated at 40 C for 24 hr on the plate, antibody titrated, OD650
# T4 construct: mature; aggregated state of the recombinant protein; also called ApoE4 incubated at 40 C for 24 hr; heat-treated ApoE4
# Protocol: 1: untreated ApoE4. 2: ApoE4 that has been incubated at 40° C. for 24 hr. Supernatant(S) and pellet (P) from ultracentrifugation were resolved on SDS-PAGE and stained by Coomassie blue. (D) Binding of HJ156 to different preparations of ApoE4 loaded at the same concentration on the ELISA plate. Sup of untreated: Supernatant fraction of untreated ApoE4 from ultracentrifugation. Sup/Pel of 24h 40C: Supernatant/pellet fraction of ApoE4 incubated at 40° C. for 24 hour. (E) Binding of HJ156 to untreated and 40° C. incubated ApoE4 with and without denaturation by 1% SDS or 4M guanidine HCl.
# In order to test whether HJ151 and HJ156 bind to some form of ApoE in the brain, unfixed frozen brain sections from APPPS1/APOE4 or APPPS1/EKO mice using HJ151 and HJ156 (FIG. 38A). The presence of Aβ plaques was confirmed with Aβ immunostaining using anti-Aβ antibody HJ3.4 on the sections from the same brain. […] Next, the ability of HJ156 to bind to an aggregated form of ApoE induced by incubation at 40° C. was queried. The binding of untreated ApoE to HJ151, HJ153 or HJ156 was compared to the binding of ApoE incubated at 40° C. to HJ151, HJ153 or HJ156. HJ153 bound to untreated ApoE or ApoE incubated at 40° C. similarly while HJ151 and HJ156 preferentially bound to ApoE incubated at 40° C. (FIG. 38B). […] Solubilization of the ApoE aggregates reduced their binding to HJ156. […]
# [5] = target: T4, heat-induced aggregates of ApoE4; test: ELISA: total ApoE4 incubated at 40 C for 24 h loaded on the plate, HJ156 titrated, OD650
# Target sequence in this assay (P02649 19-317 C130R): as the sequence (P02649 19-317 R176C) above, with C112R, C158R counted along it
# [6] = target: T4, heat-induced aggregates of ApoE4; test: ELISA: pellet fraction of ApoE4 incubated at 40 C for 24 h loaded at the same concentration on the plate, HJ156 titrated, OD650
binder,measurement,setting,value
"HJ154 (antibody, V domains shown, murine monoclonal antibody from hybridoma; also called HJ154B (biotinylated)) VH: QVQLQQPGTEFVMSGASVMLSCKASGYIFTNYWLHWVKQRPGHGLEWIGEIDPSDSYSICNDNFKGKSTLTVDKSSSTAYMQLSSLTSEDSAVYYCAGSLGRVGLAYWGQGTLVTVST VL: QIVLTQSPAIMSASPGEKVTMSCSASSSVSNMYWYQQKPGSSPKSWIYRTSNLASGVPARFSGSGSGTSYSLTISNMEAEDAATYYCQHYQNYPLTFGAGTKLELKR",EC50 (read off the curve),[1],~0.3 nM
same,EC50 (read off the curve),[2],~0.2 nM
same,binding result,murine ApoE,no binding
same,EC50 (read off the curve),[3],~0.5 nM
"HJ151 (antibody, V domains shown, murine monoclonal antibody from hybridoma; also called HJ151B (biotinylated)) VH: QVQLQQSGAELVRPGASVTLSCKASGYTFTDYEMHWVKQTPVHGLEWIGVIDPEKGGTAYNQKFKGKAILTADKSSSTAYMDLRSLTSEDSAVYYCLKDSWGQGTTLTVSS VL: DVLMTQTPLSLPVSLGDQASISCRSSQTIVHSDGNTYLEWYLQKPGQSPKLLIYKVSNRFSGVPDRFSGSGSGTYFTLKISRVEAEDLGVYYCFQGSHVPCTFGGGTKLEIKR",EC50 (read off the curve),[4],~0.2 nM
"HJ156 (antibody, V domains shown, murine monoclonal antibody from hybridoma; also called HJ156B (biotinylated)) VH: QVQLQQSGPELVKPGASVKISCKASGYIFTDYYINWVKRRPGQGLEWIGWIFPGSGVSYYNEQFKGKATLTVDKPSNTAYIFLSRLTSEDSAVYFCARYYSSSPFAYWGQGTLVTVSA VL: DVLMTQTPLSLPVSLGDQASISCRSSQNIIHSNGNTYLEWFLQRPGQSPELLIYKVSNRFSGVPDRFSGSGSGTDFTLKISRVEAEDLGVYYCFQGSHVPYTFGGGTKLEIKR",EC50 (read off the curve),[5],~0.1 nM
same,EC50 (read off the curve),[6],~0.1 nM
